The record followed here is the supplement of paper PMC9112550, “Optimization of the antimicrobial peptide Bac7 by deep mutational scanning” (BMC Biology, 2022).
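Note: peptides expressed intracellularly from a pBAD plasmid library in pooled LB shake-flask culture, induced with 0.3% L-arabinose, DNA abundance read by NGS, three biological replicates, DESeq2 with apeglm shrinkage.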

For the series, the system named is Escherichia coli TOP10. Briefly: shrunken log2 fold change of peptide-encoding DNA abundance (4.5 h post-induction vs induction); higher = less antimicrobial activity (less host growth inhibition). To be noted: time post-induction: 4.5 h; library: site-saturation at positions 5, 18, 19, 20.
In the case of RRIRLRPPRLPRPRPRPMDPPRP, the “shrunken log2 fold change” value is 0.0507.
RRIRDRPPRLPRPRPRPIDHPRP: the “shrunken log2 fold change” value is -0.273.
RRIRRRPPRLPRPRPRPFNGPRP: the “shrunken log2 fold change” value amounted to 0.0131.
In the case of RRIRQRPPRLPRPRPRPKQIPRP, the “shrunken log2 fold change” value was -0.103.
Turning to RRIRHRPPRLPRPRPRPHDRPRP, the “shrunken log2 fold change” value was -0.218.
With RRIRIRPPRLPRPRPRPYKMPRP, the “shrunken log2 fold change” value was -0.889.
Under RRIRWRPPRLPRPRPRPSMMPRP stands 0.157; under RRIRNRPPRLPRPRPRPDWMPRP, -0.0128.
Consider RRIRNRPPRLPRPRPRPCDIPRP, for which the “shrunken log2 fold change” value is -0.0262.
With RRIRYRPPRLPRPRPRPNVDPRP, the “shrunken log2 fold change” value is -1.26.
Consider RRIRHRPPRLPRPRPRPGGSPRP, for which the “shrunken log2 fold change” value was -0.0606.
For RRIRWRPPRLPRPRPRPSITPRP, the “shrunken log2 fold change” value is -0.0237.
For RRIRLRPPRLPRPRPRPHYLPRP, the “shrunken log2 fold change” value is -0.278.
Take RRIRHRPPRLPRPRPRPDLLPRP: the “shrunken log2 fold change” value was -0.0324.
Consider RRIRQRPPRLPRPRPRPQHYPRP, for which the “shrunken log2 fold change” value was -0.447.
RRIRIRPPRLPRPRPRPHEQPRP: the “shrunken log2 fold change” value is -0.288.
Take RRIRSRPPRLPRPRPRPFLKPRP: the “shrunken log2 fold change” value was -0.632.
As to RRIRLRPPRLPRPRPRPSMIPRP, the “shrunken log2 fold change” value is -1.02.
In the case of RRIRVRPPRLPRPRPRPMMIPRP, the “shrunken log2 fold change” value is -0.131.
For RRIRPRPPRLPRPRPRPDYKPRP, the “shrunken log2 fold change” value was -0.66.
Then RRIRIRPPRLPRPRPRPDFFPRP, with -0.415; and RRIRMRPPRLPRPRPRPMLTPRP, with 2.52.
Then RRIRARPPRLPRPRPRPDDMPRP, with 0.371.
On to RRIRYRPPRLPRPRPRPNVHPRP, for which the “shrunken log2 fold change” value was -0.745.
Regarding RRIRWRPPRLPRPRPRPMDYPRP, the “shrunken log2 fold change” value was -0.314.
In the case of RRIRLRPPRLPRPRPRPHVDPRP, the “shrunken log2 fold change” value is 0.0142.
For the sequence RRIRMRPPRLPRPRPRPEYPPRP, the “shrunken log2 fold change” value came out at 0.0399.
On to RRIRCRPPRLPRPRPRPMWCPRP, for which the “shrunken log2 fold change” value was found to be 0.148.
Turning to RRIRPRPPRLPRPRPRPRKMPRP, the “shrunken log2 fold change” value was found to be 0.0337.
As to RRIRNRPPRLPRPRPRPDQYPRP, the “shrunken log2 fold change” value is -0.337.
Then RRIRQRPPRLPRPRPRPANGPRP, with 0.184; and RRIRVRPPRLPRPRPRPYTQPRP, with -0.171; and RRIRIRPPRLPRPRPRPEFAPRP, with 0.452.
On to RRIRVRPPRLPRPRPRPALRPRP, for which the “shrunken log2 fold change” value is 0.306.
As for RRIRRRPPRLPRPRPRPFSIPRP, the “shrunken log2 fold change” value was -0.254.
Take RRIRMRPPRLPRPRPRPCRPPRP: the “shrunken log2 fold change” value worked out at 0.00908.
Under RRIRIRPPRLPRPRPRPRMFPRP stands -0.125; under RRIRHRPPRLPRPRPRPRHLPRP, 0.184.
As for RRIRWRPPRLPRPRPRPKDRPRP, the “shrunken log2 fold change” value amounted to 0.159.
Take RRIRGRPPRLPRPRPRPNYEPRP: the “shrunken log2 fold change” value was 0.161.
RRIRIRPPRLPRPRPRPKEDPRP: the “shrunken log2 fold change” value was -0.327.
RRIRDRPPRLPRPRPRPFLCPRP: the “shrunken log2 fold change” value is 0.0956.
In the case of RRIRWRPPRLPRPRPRPETVPRP, the “shrunken log2 fold change” value is -0.0769.
On to RRIRLRPPRLPRPRPRPAMAPRP, for which the “shrunken log2 fold change” value came to 0.00127.
For the sequence RRIRNRPPRLPRPRPRPIWGPRP, the “shrunken log2 fold change” value was -0.0075.
For the sequence RRIRVRPPRLPRPRPRPVHSPRP, the “shrunken log2 fold change” value worked out at 0.0275.
For RRIRGRPPRLPRPRPRPYHQPRP, the “shrunken log2 fold change” value is -0.101.
On to RRIRQRPPRLPRPRPRPTWKPRP, for which the “shrunken log2 fold change” value stood at 0.00778.
Then RRIRLRPPRLPRPRPRPHFTPRP, with -0.355; and RRIRYRPPRLPRPRPRPEDAPRP, with -0.0333.
In the case of RRIRRRPPRLPRPRPRPHWYPRP, the “shrunken log2 fold change” value was -0.404.
For the sequence RRIRVRPPRLPRPRPRPNWKPRP, the “shrunken log2 fold change” value is -0.0426.
On to RRIRHRPPRLPRPRPRPPHHPRP, for which the “shrunken log2 fold change” value was -0.0583.
As for RRIRIRPPRLPRPRPRPCKEPRP, the “shrunken log2 fold change” value was 1.82.
Under RRIRTRPPRLPRPRPRPTQMPRP stands 0.451.
As for RRIRSRPPRLPRPRPRPFEMPRP, the “shrunken log2 fold change” value was -0.353.
Regarding RRIRLRPPRLPRPRPRPGLVPRP, the “shrunken log2 fold change” value was determined as 0.0948.
In the case of RRIRYRPPRLPRPRPRPRHGPRP, the “shrunken log2 fold change” value was -0.0607.
As to RRIRGRPPRLPRPRPRPPCGPRP, the “shrunken log2 fold change” value is 0.554.
On to RRIRQRPPRLPRPRPRPLMCPRP, for which the “shrunken log2 fold change” value is -0.0972.
Turning to RRIRERPPRLPRPRPRPLRQPRP, the “shrunken log2 fold change” value is 0.0463.
For RRIRGRPPRLPRPRPRPYSTPRP, the “shrunken log2 fold change” value worked out at 0.037.
As for RRIRCRPPRLPRPRPRPSRAPRP, the “shrunken log2 fold change” value worked out at 0.113.
Then RRIRSRPPRLPRPRPRPMCAPRP, with 0.29; and RRIRQRPPRLPRPRPRPSLDPRP, with -0.222; and RRIRERPPRLPRPRPRPNAFPRP, with -0.568.
As for RRIRNRPPRLPRPRPRPQPVPRP, the “shrunken log2 fold change” value amounted to 0.0704.
RRIRVRPPRLPRPRPRPRYPPRP: the “shrunken log2 fold change” value was -0.294.
As for RRIRKRPPRLPRPRPRPDKIPRP, the “shrunken log2 fold change” value worked out at 0.0555.
Under RRIRNRPPRLPRPRPRPLHFPRP stands -0.563; under RRIRDRPPRLPRPRPRPHLIPRP, -0.0328; under RRIRHRPPRLPRPRPRPHDYPRP, -0.0577.
Turning to RRIRDRPPRLPRPRPRPHQAPRP, the “shrunken log2 fold change” value was -0.0175.
Then RRIRSRPPRLPRPRPRPQVEPRP, with 0.0664; and RRIRYRPPRLPRPRPRPCEAPRP, with -0.123; and RRIRARPPRLPRPRPRPERAPRP, with 0.845.
Then RRIRGRPPRLPRPRPRPQQDPRP, with 0.357.
RRIRQRPPRLPRPRPRPTNPPRP: the “shrunken log2 fold change” value was -0.175.
Turning to RRIRGRPPRLPRPRPRPHVCPRP, the “shrunken log2 fold change” value is 0.359.
In the case of RRIRHRPPRLPRPRPRPHQKPRP, the “shrunken log2 fold change” value was -0.0284.
Turning to RRIRTRPPRLPRPRPRPKTKPRP, the “shrunken log2 fold change” value is -0.212.
On to RRIRNRPPRLPRPRPRPQYNPRP, for which the “shrunken log2 fold change” value is -0.674.
RRIRYRPPRLPRPRPRPFALPRP: the “shrunken log2 fold change” value was -0.133.
Consider RRIRDRPPRLPRPRPRPYITPRP, for which the “shrunken log2 fold change” value was -0.879.
Regarding RRIRYRPPRLPRPRPRPTFWPRP, the “shrunken log2 fold change” value was determined as 0.0421.
Then RRIRFRPPRLPRPRPRPMFTPRP, with -0.123; and RRIRKRPPRLPRPRPRPESHPRP, with -0.00766; and RRIRIRPPRLPRPRPRPFGQPRP, with -0.259.
Then RRIRERPPRLPRPRPRPVWEPRP, with 0.239; and RRIRNRPPRLPRPRPRPQEQPRP, with 0.042.
Take RRIRERPPRLPRPRPRPNTNPRP: the “shrunken log2 fold change” value is -0.0492.
Consider RRIRHRPPRLPRPRPRPNGQPRP, for which the “shrunken log2 fold change” value amounted to 0.024.
Turning to RRIRPRPPRLPRPRPRPNFIPRP, the “shrunken log2 fold change” value is -0.215.
In the case of RRIRCRPPRLPRPRPRPILCPRP, the “shrunken log2 fold change” value was found to be 2.87.
Regarding RRIRNRPPRLPRPRPRPDMEPRP, the “shrunken log2 fold change” value was -0.0836.
On to RRIRERPPRLPRPRPRPCHLPRP, for which the “shrunken log2 fold change” value is -0.176.
Then RRIRHRPPRLPRPRPRPRWVPRP, with 0.31.
Take RRIRLRPPRLPRPRPRPDAYPRP: the “shrunken log2 fold change” value is -0.281.
RRIRMRPPRLPRPRPRPTTMPRP: the “shrunken log2 fold change” value is 0.558.
With RRIRNRPPRLPRPRPRPQYFPRP, the “shrunken log2 fold change” value is -0.00973.
Turning to RRIRGRPPRLPRPRPRPVKFPRP, the “shrunken log2 fold change” value worked out at 0.326.
For the sequence RRIRKRPPRLPRPRPRPCSDPRP, the “shrunken log2 fold change” value is -0.0361.
As to RRIRTRPPRLPRPRPRPVNPPRP, the “shrunken log2 fold change” value is -0.0713.
With RRIRMRPPRLPRPRPRPIGRPRP, the “shrunken log2 fold change” value is -0.00776.
With RRIRGRPPRLPRPRPRPNFFPRP, the “shrunken log2 fold change” value stood at 0.122.
As to RRIRERPPRLPRPRPRPVDAPRP, the “shrunken log2 fold change” value was -0.137.
For RRIRMRPPRLPRPRPRPDGHPRP, the “shrunken log2 fold change” value was determined as 0.0101.
RRIRLRPPRLPRPRPRPSNIPRP: the “shrunken log2 fold change” value is -0.103.
As to RRIRYRPPRLPRPRPRPLMAPRP, the “shrunken log2 fold change” value is -0.681.
Regarding RRIRMRPPRLPRPRPRPGPLPRP, the “shrunken log2 fold change” value was determined as 0.532.
For the sequence RRIRDRPPRLPRPRPRPPLNPRP, the “shrunken log2 fold change” value was found to be 0.0565.
Then RRIRHRPPRLPRPRPRPFVVPRP, with -0.16; and RRIRSRPPRLPRPRPRPDPMPRP, with -0.0673.
RRIRIRPPRLPRPRPRPERQPRP: the “shrunken log2 fold change” value amounted to 0.0212.
Take RRIRMRPPRLPRPRPRPFAGPRP: the “shrunken log2 fold change” value is -0.0745.
Consider RRIRRRPPRLPRPRPRPIMRPRP, for which the “shrunken log2 fold change” value was 0.277.
Under RRIRFRPPRLPRPRPRPHKTPRP stands -0.0597; under RRIRMRPPRLPRPRPRPVHCPRP, 0.517.
For RRIRFRPPRLPRPRPRPFCKPRP, the “shrunken log2 fold change” value was -0.374.
Turning to RRIRIRPPRLPRPRPRPHEIPRP, the “shrunken log2 fold change” value was -0.256.
Then RRIRGRPPRLPRPRPRPRGLPRP, with 1.05; and RRIRERPPRLPRPRPRPHNPPRP, with -0.417.
Turning to RRIRTRPPRLPRPRPRPSVNPRP, the “shrunken log2 fold change” value is -1.91.
Take RRIRQRPPRLPRPRPRPFCQPRP: the “shrunken log2 fold change” value was determined as 0.53.
RRIRMRPPRLPRPRPRPQMGPRP: the “shrunken log2 fold change” value came out at 0.0997.
